The target in the assay is YU2-gp120 (HIV-1 group M subtype B, isolate YU-2, UniProt P35961). Put plainly: ELISA. On the technique in general: An ELISA detects its analyte on a solid surface through an enzyme-linked reagent.

B1: 3BNC60 (antibody, V domains shown)
VH: QVHLSQSGAAVTKPGASVRVSCEASGYKISDHFIHWWRQAPGQGLQWVGWINPKTGQPNNPRQFQGRVSLTRQASWDFDTYSFYMDLKAVRSDDTAIYFCARQRSDFWDFDVWGSGTQVTVSS
VL: DIQMTQSPSSLSARVGDTVTITCQANGYLNWYQQRRGKAPKLLIYDGSKLERGVPARFSGRRWGQEYNLTINNLQPEDVATYFCQVYEFIVPGTRLDLK
As for B1, the binding result is reported as “binds”.

B2: NIH45-46 (antibody, V domains shown)
VH: QVRLSQSGGQMKKPGESMRLSCRASGYEFLNCPINWIRLAPGRRPEWMGWLKPRGGAVNYARKFQGRVTMTRDVYSDTAFLELRSLTSDDTAVYFCTRGKYCTARDYYNWDFEHWGRGAPVTVSS
VL: EIVLTQSPATLSLSPGETAIISCRTSQSGSLAWYQQRPGQAPRLVIYSGSTRAAGIPDRFSGSRWGADYNLSISNLESGDFGVYYCQQYEFFGQGTKVQVD
As to B2, the binding result is given as “binds”.

These data come from paper PMC3351836 (Science (New York, N.y.), 2011).
